Experimental data: US8101390B2, “Mutant-type acetyltransferase Mpr1” (National University Corporation Nara Institute of Science …, priority 2006, dated 2012)
Positions count from the first letter of the chain named. Names and notes keep the numbering of the source.

Key:
[1] = biological target: T1, Saccharomyces cerevisiae N-acetyltransferase Mpr1 variant F65L (phenylalanine 65 to leucine), SEQ ID NO:8 (Saccharomyces cerevisiae, UniProt E9P8D2, F65L); experiment: DTNB enzymatic activity (kinetics) of purified F65L mutant-type Mpr1; format: biochemical; settings: vs wild-type
T1 sequence (E9P8D2 1-229 F65L): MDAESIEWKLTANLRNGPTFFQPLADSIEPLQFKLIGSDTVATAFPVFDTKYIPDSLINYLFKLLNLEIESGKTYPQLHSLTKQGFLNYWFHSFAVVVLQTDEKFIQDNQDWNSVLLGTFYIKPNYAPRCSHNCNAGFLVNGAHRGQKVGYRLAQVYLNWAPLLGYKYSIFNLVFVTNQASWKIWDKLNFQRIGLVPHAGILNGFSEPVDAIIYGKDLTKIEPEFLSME
Method: (§1) JM109 was inoculated in 5 ml of M9CA (CA:0.2%) medium and was cultured at. 37° C. until OD600 of the culture reached 0.7. IPTG was added to the medium to the final concentration of 0.1 mM and cells were further cultured at 18° C. for 18 hours. After the culture, cells were ice-cooled and were collected by centrifugation (8000 rpm, 5 min). Cells were washed by the addition of Lysis buffer. After centrifugation (8000 rpm, 5 min), 5 ml of Lysis buffer was added and cells were suspended therein. The suspension was subjected to ultrasonic disintegrator and was centrifuged (15000 rpm, 10 min). The supernatant was applied onto Ni-NTA column (2 ml of QIAGEN resin suspension) equilibrated with Lysis buffer. The flow-through fraction was collected and the column was washed with 10 ml of wash buffer and then fractions were collected. Further, fractions eluted with 5 ml of elution buffer were used as the purified enzyme.
(§2) Enzymatic activities were measured for the purified wild-type Mpr1 and the purified K63R, F65L/L117V, F65L and L117V-mutant-type Mpr1s. The enzymatic activities were measured according to 5,5′-dithiobis (2-nitrobenzoic acid) (DTNB) method.

[2] = biological target: T2, Saccharomyces cerevisiae N-acetyltransferase Mpr1 variant K63R (lysine 63 to arginine), SEQ ID NO:7 (Saccharomyces cerevisiae, UniProt E9P8D2, K63R); experiment: DTNB enzymatic activity (kinetics) of purified K63R mutant-type Mpr1; format: biochemical; settings: vs wild-type
T2 sequence (E9P8D2 1-229 K63R): T1 sequence (E9P8D2 1-229 F65L) with K63R, L65F
Method: as §1, §2

[3] = biological target: T3, Saccharomyces cerevisiae N-acetyltransferase Mpr1, wild-type, SEQ ID NO:1 (Saccharomyces cerevisiae, UniProt E9P8D2); experiment: DTNB enzymatic activity (kinetics) of purified wild-type Mpr1; format: biochemical; settings: 30° C., […]-0.15 mM acetyl-CoA
T3 sequence (E9P8D2 1-229): T1 sequence (E9P8D2 1-229 F65L) with L65F
Method: as §1, §2

[4] = biological target: T4, Saccharomyces cerevisiae N-acetyltransferase Mpr1 variant L117V (leucine 117 to valine), SEQ ID NO:9 (Saccharomyces cerevisiae, UniProt E9P8D2, L117V); experiment: DTNB enzymatic activity (kinetics) of purified L117V mutant-type Mpr1; format: biochemical; settings: vs wild-type
T4 sequence (E9P8D2 1-229 L117V): T1 sequence (E9P8D2 1-229 F65L) with L65F, L117V
Method: as §1, §2

[5] = substrate: O=C(O)[C@@H]1CCN1; experiment: as above; format: biochemical, Saccharomyces cerevisiae; settings: other: L117V, 30° C., DTNB method, 0.5 mM-5 mM AZC
[6] = substrate: CC(=O)SCCNC(=O)CCNC(=O)[C@H](O)C(C)(C)COP(=O)(O)OP(=O)(O)OC[C@H]1O[C@@H](n2cnc3c(N)ncnc32)[C@H](O)[C@@H]1OP(=O)(O)O; experiment: as above; format: biochemical, Saccharomyces cerevisiae; settings: other: L117V, 30° C., DTNB method, […]-0.15 mM acetyl-CoA
[7] = substrate: O=C(O)[C@@H]1CCN1; experiment: DTNB enzymatic activity (kinetics) of purified F65L/L117V mutant-type Mpr1; format: biochemical, Saccharomyces cerevisiae; settings: other: F65L/L117V, 30° C., DTNB method, 0.5 mM-5 mM AZC
[8] = substrate: CC(=O)SCCNC(=O)CCNC(=O)[C@H](O)C(C)(C)COP(=O)(O)OP(=O)(O)OC[C@H]1O[C@@H](n2cnc3c(N)ncnc32)[C@H](O)[C@@H]1OP(=O)(O)O; experiment: as above; format: biochemical, Saccharomyces cerevisiae; settings: other: F65L/L117V, 30° C., DTNB method, […]-0.15 mM acetyl-CoA
[9] = substrate: O=C(O)[C@@H]1CCN1; experiment: DTNB enzymatic activity (kinetics) of purified F65L mutant-type Mpr1; format: biochemical, Saccharomyces cerevisiae; settings: other: F65L, 30° C., DTNB method, 0.5 mM-5 mM AZC
[10] = substrate: CC(=O)SCCNC(=O)CCNC(=O)[C@H](O)C(C)(C)COP(=O)(O)OP(=O)(O)OC[C@H]1O[C@@H](n2cnc3c(N)ncnc32)[C@H](O)[C@@H]1OP(=O)(O)O; experiment: as above; format: biochemical, Saccharomyces cerevisiae; settings: other: F65L, 30° C., DTNB method, […]-0.15 mM acetyl-CoA
[11] = substrate: O=C(O)[C@@H]1CCN1; experiment: DTNB enzymatic activity (kinetics) of purified wild-type Mpr1; format: biochemical, Saccharomyces cerevisiae; settings: other: wild-type, 30° C., DTNB method, 0.5 mM-5 mM AZC
[12] = substrate: O=C(O)[C@@H]1CCN1; experiment: DTNB enzymatic activity (kinetics) of purified K63R mutant-type Mpr1; format: biochemical, Saccharomyces cerevisiae; settings: other: K63R, 30° C., DTNB method, 0.5 mM-5 mM AZC
[13] = substrate: CC(=O)SCCNC(=O)CCNC(=O)[C@H](O)C(C)(C)COP(=O)(O)OP(=O)(O)OC[C@H]1O[C@@H](n2cnc3c(N)ncnc32)[C@H](O)[C@@H]1OP(=O)(O)O; experiment: as above; format: biochemical, Saccharomyces cerevisiae; settings: other: K63R, 30° C., DTNB method, […]-0.15 mM acetyl-CoA

## O=C(O)[C@@H]1CCN1 [AZC, azetidine-2-calboxylate]
[1]
  Km value for AZC, change in words: decreased
[2]
  Km value, change in words: decreased

## CC(=O)SCCNC(=O)CCNC(=O)[C@H](O)C(C)(C)COP(=O)(O)OP(=O)(O)OC[C@H]1O[C@@H](n2cnc3c(N)ncnc32)[C@H](O)[C@@H]1OP(=O)(O)O [Acetyl-CoA, acetyl-CoA]
[3]
  Vmax (Acetyl-CoA): 64.5 ± 1.29 U/mg
  kcat (Acetyl-CoA): 31.2 ± 0.63 s⁻¹
[4]
  Km value for acetyl-CoA, change in words: decreased
[2]
  Km value, change in words: decreased

B1: Saccharomyces cerevisiae N-acetyltransferase Mpr1 variant L117V (leucine 117 to valine), SEQ ID NO:9 (Saccharomyces cerevisiae; L117V) (protein)
chain: T1 sequence (E9P8D2 1-229 F65L) with L65F, L117V
[5]
  Km: 1400 ± 130 µM
  Vmax: 98.5 ± 3.34 U/mg
  kcat: 47.6 ± 1.61 s⁻¹
  kcat/Km: 32500 ± 2580 M⁻¹ s⁻¹
[6]
  Km: 7.63 ± 2.03 ↓ μM
  Vmax: 79.4 ± 1.54 U/mg
  kcat: 38.4 ± 0.74 s⁻¹
  kcat/Km: 5e+06 ± 1.17e+06 M⁻¹ s⁻¹

B2: Saccharomyces cerevisiae N-acetyltransferase Mpr1 variant F65L/L117V, SEQ ID NO:10 (Saccharomyces cerevisiae; F65L/L117V) (protein)
chain: T1 sequence (E9P8D2 1-229 F65L) with L117V
[7]
  Km: 1800 ± 190 µM
  Vmax: 79.4 ± 1.05 U/mg
  kcat: 38.4 ± 2.18 s⁻¹
  kcat/Km: 21300 M⁻¹ s⁻¹
[8]
  Km: 13.3 ± 1.67 µM
  Vmax: 64.9 ± 0.36 U/mg
  kcat: 31.4 ± 0.17 s⁻¹
  kcat/Km: 2.3e+06 M⁻¹ s⁻¹

B3: Saccharomyces cerevisiae N-acetyltransferase Mpr1 variant F65L (phenylalanine 65 to leucine), SEQ ID NO:8 (Saccharomyces cerevisiae; F65L) (protein)
chain: T1 sequence (E9P8D2 1-229 F65L)
[9]
  Km: 0.7 ± 0.15 ↓ mM
  Vmax: 65.0 ± 2.74 U/mg
  kcat: 31.4 ± 1.33 s⁻¹
  kcat/Km: 45500 ± 8630 M⁻¹ s⁻¹
[10]
  Km: 10.3 ± 1.46 µM
  Vmax: 63.7 ± 3.34 U/mg
  kcat: 30.8 ± 0.61 s⁻¹
  kcat/Km: 2.9e+06 M⁻¹ s⁻¹

B4: Saccharomyces cerevisiae N-acetyltransferase Mpr1, wild-type, SEQ ID NO:1 (Saccharomyces cerevisiae) (protein)
chain: T1 sequence (E9P8D2 1-229 F65L) with L65F
[11]
  Km: 1600 ± 90 µM
  Vmax: 74.76 ± 1.27 U/mg
  kcat: 36.1 ± 1.53 s⁻¹
  kcat/Km: 22400 M⁻¹ s⁻¹

B5: Saccharomyces cerevisiae N-acetyltransferase Mpr1 variant K63R (lysine 63 to arginine), SEQ ID NO:7 (Saccharomyces cerevisiae; K63R) (protein)
chain: T1 sequence (E9P8D2 1-229 F65L) with K63R, L65F
[12]
  Km: 1.2 ± 0.17 ↓ mM
  Vmax: 72 ± 2.98 U/mg
  kcat: 30.6 ± 1.44 s⁻¹
  kcat/Km: 24800 M⁻¹ s⁻¹
[13]
  Km: 8.0 ± 2.84 ↓ μM
  Vmax: 62.4 ± 1.94 U/mg
  kcat: 26.5 ± 0.94 s⁻¹
  kcat/Km: 3.3e+06 ± 1.09e+06 M⁻¹ s⁻¹
